In US20190233475A1 (Bicycle, published 2019) one finds Ki data, which are given here for 17 molecules.

Like-named read-outs stand apart in the source and are kept apart here. *1 amine or outer side, *2 acyl side, *3 side chain or, on linkers, in order; H or OH if unused. Bridges are numbered along the chain shown (N, C = ends). Where no end group is shown, it is not given here. [ ]: non-standard residue; d: D form. TBMB = c1c(C[*:1])cc(C[*:3])cc1C[*:2]; NMeR = CN[C@@H](CCCNC(=N)N)C(=O)O; hArg = N=C(N)NCCCC[C@H](N)C(=O)O; Aze = O=C(O)[C@@H]1CCN1; Sar = CNCC(=O)O

Common to all, as to experiment: enzyme inhibition assay, fluorogenic substrate Z-PheArg-AMC
Assay [1] addresses T1, human plasma kallikrein (human, UniProt P03952 20-638).
T1 construct: Enzyme used in the Ki assays; also called human kallikrein; PK
The method, then: (§1) Functional enzyme assays were conducted in 10 mM Tris HCl, 150 mM NaCl, 10 mM MgCl₂, 1 mM CaCl₂ and 1 mg/mL BSA (all Sigma UK) pH 7.4 at 25° C. in solid black 96 or 384 well plates. […] Release of AMC was measured using a Pherastar FS (BMG Labtech), excitation 360 nm, emission 460 nm. The rate of the linear phase of the reaction, typically 5 to 45 minutes, was calculated in MARS data analysis software (BMG labtech). The rate was then used to calculate the IC₅₀ and Kᵢ in Prism (GraphPad). A four parameter inhibition non-linear regression equation was used to calculate the IC₅₀. The One site-fit Kᵢ equation used to calculate the Kᵢ, constraining the Kᵢ to the Kₘ for the substrate which is 150 μM for the human enzyme, and 200 μM for the rat orthologue. All Kᵢ/IC₅₀ values are the mean of at least two independent experiments, and at least three for peptides with Kᵢ values lower than 1 nM. For rabbit kallikrein, between 7 to 14 pM enzyme was employed, with 33 μM substrate with a Kₘ of 50 μM.

Assay [2] addresses T2, rabbit plasma kallikrein (rabbit, UniProt G1T127 20-390; G1T127 391-629, The active enzyme is two chains, heavy and catalytic light, joined by a disulfide after cleavage at Arg390-Ile391. The letters do not carry the natural glycosylation.).
T2 construct: also called rabbit kallikrein
The method, then:
as §1

Assay [3] deals with T3, rat plasma kallikrein (rat, UniProt P14272 391-638).
T3 construct: domain: catalytic domain; Expressed and purified in house; also called rat kallikrein; rPK
The method, then: as §1

Assay [4] deals with T1, human plasma kallikrein. The method, then: as §1
This is another data set of the same source.

The target of assay [5] is T3, rat plasma kallikrein. Here is the method: as §1
The source holds these as a separate data set.

As usually defined, the Ki is the equilibrium dissociation constant of an inhibitor or competing ligand from its target. Lower therefore signals higher affinity.

T1 sequence (P03952 20-638 limits assumed): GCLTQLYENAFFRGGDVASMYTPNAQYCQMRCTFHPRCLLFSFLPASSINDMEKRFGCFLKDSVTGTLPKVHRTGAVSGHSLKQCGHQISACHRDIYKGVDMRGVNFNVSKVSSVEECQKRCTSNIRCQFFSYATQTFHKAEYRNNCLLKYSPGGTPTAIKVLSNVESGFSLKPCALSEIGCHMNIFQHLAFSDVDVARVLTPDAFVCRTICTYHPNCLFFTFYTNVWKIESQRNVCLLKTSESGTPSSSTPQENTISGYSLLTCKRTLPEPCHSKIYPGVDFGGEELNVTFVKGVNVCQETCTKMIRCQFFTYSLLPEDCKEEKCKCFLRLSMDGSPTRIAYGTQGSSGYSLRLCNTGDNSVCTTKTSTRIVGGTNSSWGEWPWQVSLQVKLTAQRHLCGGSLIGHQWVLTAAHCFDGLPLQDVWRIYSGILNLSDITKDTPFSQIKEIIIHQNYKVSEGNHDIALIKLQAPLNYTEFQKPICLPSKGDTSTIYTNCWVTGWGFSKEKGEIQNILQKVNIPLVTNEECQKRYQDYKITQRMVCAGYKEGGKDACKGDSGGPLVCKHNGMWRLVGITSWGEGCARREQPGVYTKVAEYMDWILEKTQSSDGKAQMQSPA
T3 sequence (P14272 391-638 limits assumed): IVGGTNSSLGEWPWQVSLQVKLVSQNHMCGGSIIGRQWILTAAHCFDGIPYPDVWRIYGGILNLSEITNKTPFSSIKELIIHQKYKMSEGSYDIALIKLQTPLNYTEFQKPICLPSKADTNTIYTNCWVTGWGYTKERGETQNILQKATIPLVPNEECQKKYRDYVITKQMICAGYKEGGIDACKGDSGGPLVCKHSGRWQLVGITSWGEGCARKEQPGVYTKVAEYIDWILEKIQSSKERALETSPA
T2 sequence (heavy, as listed by the source limits assumed, form in doubt, chain 1 of 2): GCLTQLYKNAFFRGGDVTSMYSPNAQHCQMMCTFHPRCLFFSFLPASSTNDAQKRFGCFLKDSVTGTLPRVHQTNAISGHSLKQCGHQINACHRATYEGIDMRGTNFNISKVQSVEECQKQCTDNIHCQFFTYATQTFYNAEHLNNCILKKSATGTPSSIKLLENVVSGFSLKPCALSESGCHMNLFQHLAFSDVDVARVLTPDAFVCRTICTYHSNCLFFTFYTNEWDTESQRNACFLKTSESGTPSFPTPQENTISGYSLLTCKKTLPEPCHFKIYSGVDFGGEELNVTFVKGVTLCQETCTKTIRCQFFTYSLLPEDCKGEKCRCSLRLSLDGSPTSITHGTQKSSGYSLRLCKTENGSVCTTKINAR
T2 sequence (light, as listed by the source limits assumed, form in doubt, chain 2 of 2): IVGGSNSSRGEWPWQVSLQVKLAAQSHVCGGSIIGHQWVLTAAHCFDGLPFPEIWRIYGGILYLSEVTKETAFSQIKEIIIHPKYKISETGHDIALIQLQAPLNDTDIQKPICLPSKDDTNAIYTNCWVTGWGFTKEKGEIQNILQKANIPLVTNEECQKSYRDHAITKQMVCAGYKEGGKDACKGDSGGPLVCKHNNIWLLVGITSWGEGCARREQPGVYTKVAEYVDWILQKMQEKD

B1: Ac-(06-259-02)-Sar3-(DArg2) (peptide)
peptide: Ac-CNTWNPWCPWDAPLCA[Sar][Sar][Sar][dR][dR]-NH2
modifications: linker 1-8-15 via TBMB
SMILES: CC(=O)N[C@H]1CSCc2cc3cc(c2)CSC[C@H](NC(=O)[C@H](Cc2c[nH]c4ccccc24)NC(=O)[C@@H]2CCCN2C(=O)[C@H](CC(N)=O)NC(=O)[C@H](Cc2c[nH]c4ccccc24)NC(=O)[C@H]([C@@H](C)O)NC(=O)[C@H](CC(N)=O)NC1=O)C(=O)N1CCC[C@H]1C(=O)N[C@@H](Cc1c[nH]c2ccccc12)C(=O)N[C@@H](CC(=O)O)C(=O)N[C@@H](C)C(=O)N1CCC[C@H]1C(=O)N[C@@H](CC(C)C)C(=O)N[C@H](C(=O)N[C@@H](C)C(=O)N(C)CC(=O)N(C)CC(=O)N(C)CC(=O)N[C@H](CCCNC(=N)N)C(=O)N[C@H](CCCNC(=N)N)C(N)=O)CSC3
notes: Synthetic bicyclic peptide with solubilising extension, made on Rink amide resin; also called Bicycle 3
Take B1: the Ki is 0.8 nM in assay [1], 1450 nM in assay [2] and 2.1 nM in assay [3].

B2: Ac-(06-550) NMe-Arg5 (peptide)
peptide: Ac-CSFPY[NMeR]CVYYPDIC-NH2
modifications: linker 1-7-14 via TBMB
notes: Synthetic bicyclic peptide, 5 x 6, made on Rink amide resin
B2 returned a Ki in assay [1] of 2.66 nM. In other words, the single-digit nanomolar range.

B3: Ac-(06-550) HArg5 (peptide)
peptide: Ac-CSFPY[hArg]CVYYPDIC-NH2
modifications: linker 1-7-14 via TBMB
notes: as for B2
Turning to B3, the values for the inhibition constant (Ki) in assay [1] and in assay [3] were 1.8 nM and 25 nM, respectively.
In the case of Ac-CSFPYRCVYYPDIC-NH2 (linker 1-7-14 via TBMB) [Ac-(06-550)], the Ki in assay [1] was found to be 0.9 nM; in assay [2] it was 610 nM; in assay [3], 9.3 nM.

B4: Ac-(06-550) Aze3 NMe-Arg5 (peptide)
peptide: Ac-CSF[Aze]Y[NMeR]CVYYPDIC-NH2
modifications: linker 1-7-14 via TBMB
notes: as for B2
In assay [1], B4 registered an inhibitory constant (Ki) of 53 nM.

B5: 06-257 (peptide)
peptide: ACPLSDTLCYRRMPPCA-NH2
modifications: linker 2-9-16 via TBMB
notes: Synthetic bicyclic peptide, 6 x 6, made on Rink amide resin
Turning to B5, the Ki in assay [4] was 36.1 nM; in assay [5], 159 nM; in assay [1], 36.1 nM; in assay [3], 159 nM.

B6: 06-259 (peptide)
peptide: ACNTWNPWCGWVGGFCA-NH2
modifications: linker 2-9-16 via TBMB
notes: as for B5
In the case of B6, the Ki is 20.1 nM in assay [4], 6.2 nM in assay [5], 20.1 nM in assay [1] and 6.2 nM in assay [3].

B7: 06-254-02 (peptide)
peptide: ACKNYWNPCDLIPGPCA-NH2
modifications: linker 2-9-16 via TBMB; N-terminus assumed
SMILES: CC[C@H](C)[C@@H]1NC(=O)[C@H](CC(C)C)NC(=O)[C@H](CC(=O)O)NC(=O)[C@@H]2CSCc3cc(cc(c3)CSC[C@@H](C(=O)N[C@@H](C)C(N)=O)NC(=O)[C@@H]3CCCN3C(=O)CNC(=O)[C@@H]3CCCN3C1=O)CSC[C@H](NC(=O)[C@H](C)N)C(=O)N[C@@H](CCCCN)C(=O)N[C@@H](CC(N)=O)C(=O)N[C@@H](Cc1ccc(O)cc1)C(=O)N[C@@H](Cc1c[nH]c3ccccc13)C(=O)N[C@@H](CC(N)=O)C(=O)N1CCC[C@H]1C(=O)N2
notes: as for B5
For the molecule B7, the inhibition constant (Ki) in assay [4] was 0.5 nM; in assay [5] it was 7.6 nM.

B8: 06-254-01 (peptide)
peptide: ACKNYWNPCDLIETTCA-NH2
modifications: linker 2-9-16 via TBMB; N-terminus assumed
SMILES: CC[C@H](C)[C@@H]1NC(=O)[C@H](CC(C)C)NC(=O)[C@H](CC(=O)O)NC(=O)[C@@H]2CSCc3cc(cc(c3)CSC[C@@H](C(=O)N[C@@H](C)C(N)=O)NC(=O)[C@H]([C@@H](C)O)NC(=O)[C@H]([C@@H](C)O)NC(=O)[C@H](CCC(=O)O)NC1=O)CSC[C@H](NC(=O)[C@H](C)N)C(=O)N[C@@H](CCCCN)C(=O)N[C@@H](CC(N)=O)C(=O)N[C@@H](Cc1ccc(O)cc1)C(=O)N[C@@H](Cc1c[nH]c3ccccc13)C(=O)N[C@@H](CC(N)=O)C(=O)N1CCC[C@H]1C(=O)N2
notes: as for B5
Regarding B8, the inhibitory constant (Ki) amounted to 1 nM in assay [4] and 15.9 nM in assay [5].

B9: 06-259-03 (peptide)
peptide: ACNHWNPWCSADPPICA-NH2
modifications: linker 2-9-16 via TBMB
notes: as for B5
As to B9, the inhibition constant (Ki) is 1.4 nM in assay [4] and 8.2 nM in assay [5].

B10: Ac-(06-550) Aze3 HArg5 (peptide)
peptide: Ac-CSF[Aze]Y[hArg]CVYYPDIC-NH2
modifications: linker 1-7-14 via TBMB
notes: as for B2
On to B10, for which the figures for the inhibition constant Ki in assay [1] and in assay [3] were 0.5 nM and 5.6 nM, respectively.

B11: 06-259-01 (peptide)
peptide: ACNHWNPWCSVEPPVCA-NH2
modifications: linker 2-9-16 via TBMB
notes: as for B5
With B11, the inhibitory constant (Ki) in assay [4] amounted to 2.4 nM; in assay [5], 10.4 nM.

B12: Ac-(06-255) (peptide)
peptide: Ac-CRNYWNPCTLINITC-NH2
modifications: linker 1-8-15 via TBMB
notes: Synthetic bicyclic peptide without the terminal alanines, made on Rink amide resin
For B12, the inhibition constant (Ki) was 3.7 nM in assay [1], 342 nM in assay [2] and 7.7 nM in assay [3].

B13: Ac-(06-255)-Sar3-(DArg2) (peptide)
peptide: Ac-CRNYWNPCTLINITCA[Sar][Sar][Sar][dR][dR]-NH2
modifications: linker 1-8-15 via TBMB
SMILES: CC[C@H](C)[C@@H]1NC(=O)[C@H](CC(C)C)NC(=O)[C@H]([C@@H](C)O)NC(=O)[C@@H]2CSCc3cc(cc(c3)CSC[C@@H](C(=O)N[C@@H](C)C(=O)N(C)CC(=O)N(C)CC(=O)N(C)CC(=O)N[C@H](CCCNC(=N)N)C(=O)N[C@H](CCCNC(=N)N)C(N)=O)NC(=O)[C@H]([C@@H](C)O)NC(=O)[C@H]([C@@H](C)CC)NC(=O)[C@H](CC(N)=O)NC1=O)CSC[C@H](NC(C)=O)C(=O)N[C@@H](CCCNC(=N)N)C(=O)N[C@@H](CC(N)=O)C(=O)N[C@@H](Cc1ccc(O)cc1)C(=O)N[C@@H](Cc1c[nH]c3ccccc13)C(=O)N[C@@H](CC(N)=O)C(=O)N1CCC[C@H]1C(=O)N2
notes: Synthetic bicyclic peptide with solubilising extension, made on Rink amide resin
As for B13, the Ki came out at 1.2 nM in assay [1], 251 nM in assay [2] and 7.4 nM in assay [3].

B14: 06-259-04 (peptide)
peptide: ACNYWNPWCPWDAPLCA-NH2
modifications: linker 2-9-16 via TBMB
notes: as for B5
As for B14, the Ki in assay [4] was determined as 3.4 nM; in assay [5], 6.7 nM.

B15: Ac-(06-259-02) (peptide)
peptide: Ac-CNTWNPWCPWDAPLC-NH2
modifications: linker 1-8-15 via TBMB
notes: as for B12
As for B15, the Ki is 5.9 nM in assay [1] and 3.8 nM in assay [3].

B16: 06-254-03 (peptide)
peptide: ACKNYWNPCDLVMDTCA-NH2
modifications: linker 2-9-16 via TBMB; N-terminus assumed
SMILES: CSCC[C@@H]1NC(=O)[C@H](C(C)C)NC(=O)[C@H](CC(C)C)NC(=O)[C@H](CC(=O)O)NC(=O)[C@@H]2CSCc3cc(cc(c3)CSC[C@@H](C(=O)N[C@@H](C)C(N)=O)NC(=O)[C@H]([C@@H](C)O)NC(=O)[C@H](CC(=O)O)NC1=O)CSC[C@H](NC(=O)[C@H](C)N)C(=O)N[C@@H](CCCCN)C(=O)N[C@@H](CC(N)=O)C(=O)N[C@@H](Cc1ccc(O)cc1)C(=O)N[C@@H](Cc1c[nH]c3ccccc13)C(=O)N[C@@H](CC(N)=O)C(=O)N1CCC[C@H]1C(=O)N2
notes: as for B5
Turning to B16, the inhibition constant (Ki) was determined as 1.4 nM in assay [4] and 10.1 nM in assay [5].
